The test deals with murine GM-CSF receptor (on FDC-P1 cells) (murine) (UniProt Q00941). The test is described as follows: cell-based or functional assay.
Sequence of UniProt Q00941 (Q00941 30-388, chain 1 of 2): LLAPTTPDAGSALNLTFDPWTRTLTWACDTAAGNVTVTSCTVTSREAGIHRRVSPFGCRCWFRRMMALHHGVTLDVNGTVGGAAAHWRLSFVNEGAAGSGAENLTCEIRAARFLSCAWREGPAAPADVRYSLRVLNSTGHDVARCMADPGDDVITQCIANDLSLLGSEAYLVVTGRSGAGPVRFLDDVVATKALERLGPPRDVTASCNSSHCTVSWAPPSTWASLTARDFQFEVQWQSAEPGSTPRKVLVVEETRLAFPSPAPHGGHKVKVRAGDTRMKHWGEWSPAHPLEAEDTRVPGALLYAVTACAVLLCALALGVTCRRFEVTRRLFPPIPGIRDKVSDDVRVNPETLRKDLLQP
Sequence of UniProt Q00941 (P26955 23-896, chain 2 of 2, further chain): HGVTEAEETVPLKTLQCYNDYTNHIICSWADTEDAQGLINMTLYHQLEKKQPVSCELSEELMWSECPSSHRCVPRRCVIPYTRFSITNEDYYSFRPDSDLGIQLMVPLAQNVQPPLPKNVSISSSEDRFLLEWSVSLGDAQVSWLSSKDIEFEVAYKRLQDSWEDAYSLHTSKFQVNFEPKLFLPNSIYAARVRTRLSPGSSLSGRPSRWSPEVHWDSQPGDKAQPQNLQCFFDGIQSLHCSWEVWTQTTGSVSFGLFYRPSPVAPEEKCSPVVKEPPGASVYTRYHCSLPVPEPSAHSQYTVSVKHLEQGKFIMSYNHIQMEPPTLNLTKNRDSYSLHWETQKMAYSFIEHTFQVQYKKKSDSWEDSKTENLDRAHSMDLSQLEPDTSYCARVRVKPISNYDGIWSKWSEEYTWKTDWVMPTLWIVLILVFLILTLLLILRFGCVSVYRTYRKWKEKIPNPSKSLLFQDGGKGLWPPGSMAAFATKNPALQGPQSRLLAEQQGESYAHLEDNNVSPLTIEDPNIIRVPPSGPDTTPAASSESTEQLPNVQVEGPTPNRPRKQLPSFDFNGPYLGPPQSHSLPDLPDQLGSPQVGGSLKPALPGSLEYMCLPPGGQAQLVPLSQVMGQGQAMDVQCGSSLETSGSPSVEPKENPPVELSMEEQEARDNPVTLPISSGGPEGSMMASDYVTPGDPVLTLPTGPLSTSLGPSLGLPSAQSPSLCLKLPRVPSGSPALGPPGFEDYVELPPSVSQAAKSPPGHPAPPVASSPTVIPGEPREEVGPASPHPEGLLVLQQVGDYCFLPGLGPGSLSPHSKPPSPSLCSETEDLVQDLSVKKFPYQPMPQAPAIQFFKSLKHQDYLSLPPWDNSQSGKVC

In turn, “GPI-GM-CSF (murine GM-CSF fused to the S. cerevesiae Gas1 GPI modification signal sequence) (from UniProt P01587 18-141; P22146 474-528) (ligand; the values are: proliferation increase over soluble GM-CSF)” showed a proliferation of FDC-P1 cells (Biotrak Cell Proliferation ELISA, BrdU) of 25%.

These data come from patent publication US20040091503A1.
